This note sets out measurements from patent publication US20200325187A1 (Genentech, published 2020).

In the assay the target is Flt-1 (human, UniProt P17948 27-756, limits assumed). The experiment in a line: plate ELISA, growth factor coated. The method, then:
Binding specificity of each peptide was established by competition ELISA. […] After blocking with block buffer (PBS with 0.5% BSA and 0.05% TWEEN®20) for 2 hours at room temperature, the receptor-Fc fusions or biotinylated receptors were serially diluted using assay buffer (PBS with 0.5% BSA and 0.05% TWEEN®20) and incubated for 1 hour at room temperature. […] Competition ELISA was conducted in an identical fashion as described above except after blocking, a mixture of serially diluted peptide containing a constant concentration of receptor-Fc fusion or biotinylated receptor (concentration of receptor was set to EC₆₀) was added and incubated for 1 hour. All recombinant human proteins and antibodies were purchased from R &D Systems (Minneapolis, Minn.).
In general terms: In an ELISA, binding on a coated surface is turned into a signal by an enzyme label.

Sequence of Flt-1 (P17948 27-756 limits assumed): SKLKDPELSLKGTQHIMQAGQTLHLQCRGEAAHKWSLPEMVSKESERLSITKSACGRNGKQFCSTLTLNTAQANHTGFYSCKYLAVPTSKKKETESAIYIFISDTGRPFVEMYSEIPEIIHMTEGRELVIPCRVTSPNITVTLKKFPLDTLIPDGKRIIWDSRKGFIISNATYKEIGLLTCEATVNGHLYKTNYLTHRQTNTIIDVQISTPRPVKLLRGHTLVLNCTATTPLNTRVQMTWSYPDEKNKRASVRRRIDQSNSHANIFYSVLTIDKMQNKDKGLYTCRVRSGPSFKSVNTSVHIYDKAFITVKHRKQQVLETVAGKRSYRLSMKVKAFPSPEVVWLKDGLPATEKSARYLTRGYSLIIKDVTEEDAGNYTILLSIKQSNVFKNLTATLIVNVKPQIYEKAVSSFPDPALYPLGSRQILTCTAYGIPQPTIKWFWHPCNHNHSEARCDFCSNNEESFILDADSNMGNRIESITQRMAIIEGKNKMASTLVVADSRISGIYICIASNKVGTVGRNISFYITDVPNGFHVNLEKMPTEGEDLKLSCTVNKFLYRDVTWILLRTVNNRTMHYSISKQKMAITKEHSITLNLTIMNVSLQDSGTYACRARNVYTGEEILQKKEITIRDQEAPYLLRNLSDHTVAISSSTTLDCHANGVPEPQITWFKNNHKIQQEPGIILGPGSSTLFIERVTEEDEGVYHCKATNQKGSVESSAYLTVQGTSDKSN

B1: PIGF-2 (ligand, human, UniProt P49763-3 19-170, looked up)
chain: LPAVPPQQWALSAGNGSSEVEVVPFQEVWGRSYCRALERLVDVVSEYPSEVEHMFSPSCVSLLRCTGCCGDENLHCVPVETANVTMQLLKIRSGDRPSYVELTFSQHVRCECRPLREKMKPERRRPKGRGKRRREKQRPTDCHLCGDAVPRR
notes: also called P1Gf-2; P1GF
In the case of B1, the binding result is “binds”.
